From US20260098061A1, “EPHA2-BINDING PENDING PEPTIDE AND COMPOSITION COMPRISING SAME” (PeptiDream Inc., priority 2022, published 2026) come the findings set out here.

The Kd is the concentration at which binding is half-saturated.

Assay [1] addresses T1, Recombinant Human EphA2 Fc Protein (Homo sapiens, UniProt P29317).
T1 construct: purchased Elabscience
Description: SPR interaction analysis (Biacore T200), kinetics of peptides against EphA2. It is filed as binding. As to conditions: Recombinant Human EphA2 Fc Protein captured by Human Antibody Capture kit; single-cycle kinetics; 25° C.; HBS-P+ buffer with 1% DMSO. In short, it runs like this: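 KD derived from ka and kd, fitted on baseline-subtracted sensorgrams from single-cycle kinetics of five peptide dilutions. Running buffer: HBS-P+ (pH 7.4) plus 1% DMSO, 25° C, Biacore T200. Recombinant human EphA2-Fc held on an antibody capture surface.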
In general terms: In SPR one partner is held on a chip, and binding of the other changes the refractive index at the surface.

Assay [2] has as its target T2, Recombinant Human EphA2 Fc Protein (Fc tag, Elabscience) (human, UniProt P29317 24-534).
T2 construct: Bought protein (Elabscience), captured with the Human Antibody Capture kit; also called hEphA2; not shown: Fc tag of the commercial protein
Description: SPR Biacore T200, EphA2-Fc captured, single-cycle kinetics; grade, legend 0 < A ≤ 1 nM. As for the experimental part:
The HBS-P+ buffer (10 mM HEPES (pH7.4), 150 mM NaCl, 0.05% (v/V) Surfactant P20) containing 1% DMSO was used as running buffer. Recombinant Human EphA2 Fc Protein (Fc tag, Elabscience) was captured by Human Antibody Capture kit (Cytiva). Peptide samples in DMSO were diluted with running buffer, and prepared five serial dilutions. Using these serial dilutions, kinetics of peptides against EphA2 was measured at a flow rate of 30 mL/min at 25° C. The method adopted for sample measurement was a single-cycle kinetics method. The analysis was conducted using the evaluation software 3.0 provided with Biacore T200. Kinetics fitting was done on the difference data obtained by subtracting the baseline data from sample measurement data. KD values were calculated based on the association rate constant (ka) and dissociation rate constant (kd).

Numbered stars: 1 amine (or outer) side, 2 acyl side, 3 side chain; on linkers, the order of the positions; unused ones are H or OH. Bridge positions count the residues as written; N and C are the ends. Square brackets hold non-standard residues; d marks the D form. Primed or numbered codes have the meaning given here. Qglucamine = (2S)-2-amino-4-{[(2S,3R,4R,5R)-2,3,4,5,6-pentahydroxyhexyl]carbamoyl}butanoic acid, O=C(CC[C@H](N[*:1])C(=O)[*:2])NC[C@H](O)[C@@H](O)[C@H](O)[C@H](O)CO; KCOpipzaa″ = (2S)-2-amino-6-{[4-(carboxymethyl)piperazine-1-carbonyl]amino}hexanoic acid, O=C(NCCCC[C@H](N[*:1])C(=O)[*:2])N1CCN(CC(=O)[*:3])CC1; Hgn″ = (2S)-2-amino-5-carbamoylpentanoic acid (homoglutamine), NC(=O)CCC[C@H](N[*:1])C(=O)[*:2]; Hgn(3) = 2-amino-5-carbamoylpentanoic acid (homoglutamine), NC(=O)CCC[C@H](N[*:1])C(=O)[*:2]; Hgn = (2S)-2-amino-5-carbamoylpentanoic acid, NC(=O)CCC[C@H](N[*:1])C(=O)[*:2]; Trp(1-Me,7-Cl) = Cn1cc(C[C@H](N)C(=O)O)c2cccc(Cl)c21; dPhe(3-CONH2) = NC(=O)c1cccc(C[C@@H](N)C(=O)O)c1; Trp(1-Me) = Cn1cc(C[C@H](N)C(=O)O)c2ccccc21; NMe3Pal = CN[C@@H](Cc1cccnc1)C(=O)O; NMeF = CN[C@@H](Cc1ccccc1)C(=O)O; hArg = N=C(N)NCCCC[C@H](N)C(=O)O; hCit = NC(=O)NCCCC[C@H](N)C(=O)O; Gly(cBu) = N[C@H](C(=O)O)C1CCC1; NMeE = CN[C@@H](CCC(=O)O)C(=O)O

T2 sequence (P29317 24-534 limits assumed): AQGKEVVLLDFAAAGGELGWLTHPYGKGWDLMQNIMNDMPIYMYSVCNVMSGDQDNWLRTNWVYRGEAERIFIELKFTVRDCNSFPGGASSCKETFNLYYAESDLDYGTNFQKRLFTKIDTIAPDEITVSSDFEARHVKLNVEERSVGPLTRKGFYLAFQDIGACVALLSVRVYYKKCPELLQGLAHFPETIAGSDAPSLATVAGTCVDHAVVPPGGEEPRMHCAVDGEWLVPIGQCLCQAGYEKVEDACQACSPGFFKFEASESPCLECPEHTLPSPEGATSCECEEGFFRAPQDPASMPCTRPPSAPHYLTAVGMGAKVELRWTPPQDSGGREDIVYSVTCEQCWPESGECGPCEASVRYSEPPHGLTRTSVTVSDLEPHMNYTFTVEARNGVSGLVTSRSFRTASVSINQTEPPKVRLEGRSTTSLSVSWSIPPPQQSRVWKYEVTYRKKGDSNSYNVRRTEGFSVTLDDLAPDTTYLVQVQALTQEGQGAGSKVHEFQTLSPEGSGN

As for `C[C@@H]1SCC(=O)N[C@H](Cc2cccc(C(N)=O)c2)C(=O)N(C)[C@@H](Cc2cccnc2)C(=O)N[C@@H](CC(N)=O)C(=O)N[C@@H](C2CCC2)C(=O)N[C@@H](CCCC(N)=O)C(=O)N(C)[C@@H](CCC(=O)O)C(=O)N[C@@H](Cc2cn(C)c3c(Cl)cccc23)C(=O)N[C@@H](CCCCNC(=O)N2CCN(CC(=O)O)CC2)C(=O)N[C@@H](Cc2cn(C)c3ccccc23)C(=O)N[C@@H]1C(N)=O` [PDC_EphA2-00026610, df3CON-Me3Py-N-Cbg-Hgn-MeE-W1Me7Cl-KCOpipzaa-W1Me-C3SMe-NH2], in assay [1], the equilibrium dissociation constant (Kd) was in the range of 1 to 10 nM. For `C[C@H]1SCC(=O)N[C@H](Cc2cccc(C(N)=O)c2)C(=O)N(C)[C@@H](Cc2cccnc2)C(=O)N[C@@H](CC(N)=O)C(=O)N[C@@H](C2CCC2)C(=O)N[C@@H](CCCC(N)=O)C(=O)N(C)[C@@H](CCC(=O)O)C(=O)N[C@@H](Cc2cn(C)c3c(Cl)cccc23)C(=O)N[C@@H](CCCCNC(=O)N2CCN(CC(=O)O)CC2)C(=O)N[C@@H](Cc2cn(C)c3ccccc23)C(=O)N[C@@H]1C(N)=O` [PDC_EphA2-00026611, df3CON-Me3Py-N-Cbg-Hgn-MeE-W1Me7Cl-KCOpipzaa-W1Me-C3RMe-NH2], the equilibrium dissociation constant (Kd) in assay [1] was below 1 nM.

As to {CH2CO}-[dPhe(3-CONH2)][NMeF]N[Gly(cBu)][Hgn(3)][NMeE][Trp(1-Me,7-Cl)][hCit][Trp(1-Me)]T[hArg]C-NH2 (thioether N-12) [PDC_EphA2-00019427], the Kd in assay [2] was at most 1 nM.

B1: PDC_EphA2-00019438 (peptide)
peptide: {CH2CO}-[dPhe(3-CONH2)][NMe3Pal]N[Gly(cBu)][Hgn″][NMe3Pal][Trp(1-Me,7-Cl)][KCOpipzaa″][Trp(1-Me)]T[Hgn″]C-NH2
modifications: thioether N-12
SMILES: C[C@@H](O)[C@@H]1NC(=O)[C@H](Cc2cn(C)c3ccccc23)NC(=O)[C@H](CCCCNC(=O)N2CCN(CC(=O)O)CC2)NC(=O)[C@H](Cc2cn(C)c3c(Cl)cccc23)NC(=O)[C@H](Cc2cccnc2)N(C)C(=O)[C@H](CCCC(N)=O)NC(=O)[C@H](C2CCC2)NC(=O)[C@H](CC(N)=O)NC(=O)[C@H](Cc2cccnc2)N(C)C(=O)[C@@H](Cc2cccc(C(N)=O)c2)NC(=O)CSC[C@@H](C(N)=O)NC(=O)[C@H](CCCC(N)=O)NC1=O
Turning to B1, in assay [2], the dissociation constant Kd is at most 1 nM.

B2: PDC_EphA2-00019437 (peptide)
peptide: {CH2CO}-[dPhe(3-CONH2)][NMe3Pal]N[Gly(cBu)][Hgn][NMe3Pal][Trp(1-Me,7-Cl)][Qglucamine][Trp(1-Me)]T[Hgn]C-NH2
modifications: thioether N-12
SMILES: C[C@@H](O)[C@@H]1NC(=O)[C@H](Cc2cn(C)c3ccccc23)NC(=O)[C@H](CCC(=O)NC[C@H](O)[C@@H](O)[C@H](O)[C@H](O)CO)NC(=O)[C@H](Cc2cn(C)c3c(Cl)cccc23)NC(=O)[C@H](Cc2cccnc2)N(C)C(=O)[C@H](CCCC(N)=O)NC(=O)[C@H](C2CCC2)NC(=O)[C@H](CC(N)=O)NC(=O)[C@H](Cc2cccnc2)N(C)C(=O)[C@@H](Cc2cccc(C(N)=O)c2)NC(=O)CSC[C@@H](C(N)=O)NC(=O)[C@H](CCCC(N)=O)NC1=O
For B2, in assay [2], the Kd is at most 1 nM.
